Measurements: publication PMC6155552, “Arabidopsis thaliana alcohol dehydrogenase is differently affected by several redox modifications” (PLoS ONE, 2018)
Substitutions are numbered along the chain they refer to. In names and notes the source's numbering stands.

T1: ADH (recombinant A. thaliana alcohol dehydrogenase, ADH1, At1g77120) (Arabidopsis thaliana, UniProt P06525)
T1 construct: tag removal not mentioned
T1 sequence (P06525 1-379): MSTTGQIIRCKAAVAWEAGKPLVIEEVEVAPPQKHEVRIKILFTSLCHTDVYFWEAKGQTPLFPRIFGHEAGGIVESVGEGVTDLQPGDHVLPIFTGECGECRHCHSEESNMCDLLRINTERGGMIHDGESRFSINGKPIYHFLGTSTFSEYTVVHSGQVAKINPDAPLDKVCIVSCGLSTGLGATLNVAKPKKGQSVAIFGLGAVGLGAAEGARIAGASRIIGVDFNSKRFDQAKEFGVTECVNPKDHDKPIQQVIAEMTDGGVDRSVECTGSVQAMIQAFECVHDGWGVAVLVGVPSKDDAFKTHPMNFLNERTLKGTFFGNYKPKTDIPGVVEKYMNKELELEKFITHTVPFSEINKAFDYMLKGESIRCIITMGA

B1: ADH (recombinant A. thaliana alcohol dehydrogenase, ADH1, At1g77120) (Arabidopsis thaliana) (protein)
chain: T1 sequence (P06525 1-379)
notes: tag removal not mentioned
B2: ADH (recombinant A. thaliana alcohol dehydrogenase, ADH1, At1g77120) (Arabidopsis thaliana; C243S) (protein)
chain: T1 sequence (P06525 1-379) with C243S
notes: tag removal not mentioned

Assays:
[1] = molecular target: T1, ADH (recombinant A. thaliana alcohol dehydrogenase, ADH1, At1g77120); assay: protection of activity against inactivation by H2O2 or DEA/NO; type: biochemical; details: 0.02-0.2 mM NADH; 0.5 mM H2O2 or DEA/NO; 100 mM Tris-Cl pH 7.5; room temperature
[2] = substrate: NC(=O)c1ccc[n+]([C@@H]2O[C@H](COP(=O)(O)OP(=O)(O)OC[C@H]3O[C@@H](n4cnc5c(N)ncnc54)[C@H](O)[C@@H]3O)[C@@H](O)[C@H]2O)c1; assay: microplate ADH activity assay, non-linear regression; type: biochemical, Arabidopsis thaliana; details: ethanol-to-acetaldehyde direction; NAD+ varied 0-0.8 mM; 5 mM DTT
Excerpt: microplate ADH activity assay, non-linear regression on ADH (recombinant A. thaliana alcohol dehydrogenase, ADH1, At1g77120)

Row | Molecule | protection of activity against inactivation by H2O2 or DEA/NO [1] | Km [2] [µM] | kcat [2] [s⁻¹] | kcat/Km [2] [M⁻¹ s⁻¹]
1 | NC(=O)C1=CN([C@@H]2O[C@H](COP(=O)(O)OP(=O)(O)OC[C@H]3O[C@@H](n4cnc5c(N)ncnc54)[C@H](O)[C@@H]3O)[C@@H](O)[C@H]2O)C=CC1 [NADH] | presence of NADH allows the enzyme to keep a significantly higher activity level |  |  | 
2 | B1 |  | 166 ± 17 | 31.5 ± 2.7 | 191000 ± 8000
3 | B2 |  | 251 ± 17 | 52.1 ± 3 | 208000 ± 5000
